# In patent US6815187:
# System: syndecan-4 cytoplasmic tail peptide with a phosphorylated Ser (S4c-P)
substance,measurement,value
Recombinant PKCα,"phosphorylation level of the PKCβ1 optimal substrate peptide by PKCα, in the presence of PIP2",the phosphorylation level of the substrate was similar to that obtained with PIP2 alone
